Source: article PMC4084651 (DNA repair, 2013)
Like-named read-outs stand apart in the source and are kept apart here.

Columns and labels:
SsoRadA [1] = target: T1, SsoRadA (Saccharolobus solfataricus, UniProt Q55075); test: filter binding, saturation binding curve
T1 sequence (Q55075 1-324): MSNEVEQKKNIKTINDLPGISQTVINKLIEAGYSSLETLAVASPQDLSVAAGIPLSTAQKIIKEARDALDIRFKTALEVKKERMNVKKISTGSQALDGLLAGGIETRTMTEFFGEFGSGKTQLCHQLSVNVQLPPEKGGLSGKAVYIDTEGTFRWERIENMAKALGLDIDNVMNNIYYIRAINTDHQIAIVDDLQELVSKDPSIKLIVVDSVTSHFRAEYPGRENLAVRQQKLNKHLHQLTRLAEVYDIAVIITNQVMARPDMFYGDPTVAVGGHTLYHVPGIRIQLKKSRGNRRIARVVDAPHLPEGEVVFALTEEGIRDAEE

SsoRadA [2] = target: SsoRadA (Saccharolobus solfataricus, UniProt Q55075, K120R); test: filter binding, saturation binding curve
SsoRadA [3] = target: T2, SsoRadA (Sulfolobus solfataricus, UniProt Q55075 1-324); test: EMSA
T2 sequence: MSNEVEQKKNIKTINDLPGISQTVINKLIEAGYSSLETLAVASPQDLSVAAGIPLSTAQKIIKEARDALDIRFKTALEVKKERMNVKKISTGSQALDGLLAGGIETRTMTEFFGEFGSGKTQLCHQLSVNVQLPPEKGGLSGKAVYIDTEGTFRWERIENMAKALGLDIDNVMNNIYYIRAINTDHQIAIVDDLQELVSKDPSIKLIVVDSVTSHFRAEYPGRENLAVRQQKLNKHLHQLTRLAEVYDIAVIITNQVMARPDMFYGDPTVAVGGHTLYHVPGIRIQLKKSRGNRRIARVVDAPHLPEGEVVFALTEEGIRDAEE

SsoRadA K120A [4] = target: T3, SsoRadA K120A (Sulfolobus solfataricus, UniProt Q55075 1-324, K120A); test: EMSA
T3 sequence: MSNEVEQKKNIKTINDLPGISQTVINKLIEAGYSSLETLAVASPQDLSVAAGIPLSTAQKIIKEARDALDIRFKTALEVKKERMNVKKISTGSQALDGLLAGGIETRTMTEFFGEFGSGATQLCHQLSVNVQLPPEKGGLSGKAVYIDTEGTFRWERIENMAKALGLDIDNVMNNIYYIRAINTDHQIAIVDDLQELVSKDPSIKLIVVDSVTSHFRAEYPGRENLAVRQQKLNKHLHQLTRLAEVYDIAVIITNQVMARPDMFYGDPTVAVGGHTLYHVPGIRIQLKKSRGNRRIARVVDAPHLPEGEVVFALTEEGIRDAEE

SsoRadA [5] = target: T2, SsoRadA; test: EMSA; remark: listed apart in the source
SsoRadA K120R = target: T4, SsoRadA K120R (Sulfolobus solfataricus, UniProt Q55075 1-324, K120R); test: EMSA
T4 sequence: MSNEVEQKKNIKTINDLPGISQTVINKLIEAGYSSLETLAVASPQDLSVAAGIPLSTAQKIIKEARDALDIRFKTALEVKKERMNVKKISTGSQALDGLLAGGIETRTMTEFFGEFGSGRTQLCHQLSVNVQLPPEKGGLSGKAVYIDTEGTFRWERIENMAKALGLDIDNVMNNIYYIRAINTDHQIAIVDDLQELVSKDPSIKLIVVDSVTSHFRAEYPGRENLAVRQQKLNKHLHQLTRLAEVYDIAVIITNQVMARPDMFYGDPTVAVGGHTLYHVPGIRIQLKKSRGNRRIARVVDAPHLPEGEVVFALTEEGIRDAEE

SsoRadA K120A [6] = target: T3, SsoRadA K120A; test: EMSA; remark: listed apart in the source

Work on `Nc1ncnc2c1ncn2[C@@H]1O[C@H](COP(=O)(O)OP(=O)(O)OP(=O)(O)O)[C@@H](O)[C@H]1O` [ATP] yielded a Kd (SsoRadA [1]) of 2.4 ± 0.6 µM and a Kd (SsoRadA [2]) of 59.4 ± 9.4 µM.

B1: 63-mer ssDNA (ssDNA)
DNA: ACAGCACCAATGAAATCTATTAAGCTCCTCATCGTCCGCAAAAATATCGTCACCTCAAAAGGA
B1: binds (SsoRadA [3]); binds (SsoRadA K120A [4]).

B2: 63-mer dsDNA (dsDNA)
DNA 1: ACAGCACCAATGAAATCTATTAAGCTCCTCATCGTCCGCAAAAATATCGTCACCTCAAAAGGA
DNA 2: TCCTTTTGAGGTGACGATATTTTTGCGGACGATGAGGAGCTTAATAGATTTCATTGGTGCTGT
B2: no binding (SsoRadA [5]); no binding (SsoRadA K120R); no binding (SsoRadA K120A [6]).
